B1: WSB1 (parent)
chain: FSHDGLHVASLADDKMVRFWRIDE

Variants of: B1
Assay: protein stability index of a GFP-peptide fusion (GPS, HEK-293T) (PSI 1-6); higher = more stable
Conditions: c terminus: a fixed tail appended
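Further: lentivirally expressed fusions sorted by FACS into six bins by GFP to DsRed ratio, PSI derived from sequencing read proportions per bin multiplied by bin number.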

Protein stability index of substitutions, site by site:
A9: P 1.76, Q 1.89, S 2.17, T 1.25, V 2.55, W 2.44
S10: A 1.74, D 2.03, E 2.02, F 3.47, G 1.65, I 1.69, K 2.84, L 1.87, N 1.75, P 1.63, Q 1.82, T 1.64, V 1.11
L11: A 2.24, D 2.06, E 1.65, F 2.5, G 1.71, H 2.98, I 2.2, K 2.24, M 1.69, N 1.78, P 1.47, Q 1.67, R 1.66, S 1.05, V 2.03, Y 1.3
A12: C 1.95, D 2.32, G 3.04, H 2.99, I 1.93, K 1.71, L 2.04, N 2.43, P 1.57, Q 2.55, S 1.35, T 1.79, V 1.75, W 1.23, Y 1.66
D13: A 1.02, C 1.02, E 1.31, G 1.04, H 3.41, I 1.21, K 1.88, L 2.13, M 1.22, N 2.09, P 1.56, R 1.42, T 1.36, V 2.03, W 2.68
D14: C 2.36, E 1.58, F 2.93, H 2.2, I 3.14, K 1.96, L 1.58, M 1.97, N 2.03, P 2.05, Q 1.78, R 1.95, T 1.83, W 2.53, Y 1.52
K15: A 2.18, C 1.53, D 2.33, E 2.68, F 1.35, G 1.69, H 1.65, I 1.49, L 2.49, N 1.65, Q 1.04, R 2.02, S 1.76, T 1.44, V 2.78, W 1.67, Y 1.34
M16: A 1.57, C 2.98, E 1.88, G 1.83, H 2.45, I 1.4, K 2.23, L 1.56, N 1.36, P 2.05, R 2.76, S 2.12, T 1.16, V 2.88, W 1.57, Y 1.66
V17: A 1.15, C 3.55, D 1.96, E 2.75, F 1.58, G 1.03, H 1.51, I 2.42, K 1.85, L 1.27, M 1.79, N 1.5, P 2.42, Q 2.14, R 2.03, S 1.54, T 1.56, Y 1.91
R18: A 1.41, C 1.43, D 2.03, E 1.92, G 1.26, I 2.23, K 2.12, L 1.32, M 2.37, P 1.83, Q 2.01, S 1.31, T 1.08, Y 1.89
F19: A 2.27, C 2.32, D 3.37, E 3.92, G 2.38, H 2.66, I 1.49, K 2.38, L 3.32, M 3.75, N 2.62, P 2.65, Q 2.03, R 3.11, S 2.42, T 3.13, V 2.15, W 1.57, Y 2.33
W20: A 2.48, C 2.42, D 3.51
